The results in this text go back to article PMC3358306 (PLoS ONE, 2012).

Several values for one entry are separate records, joined by “and”; a condition that tells them apart may be missing. Equal entries are not always repeated.

Data set [1] deals with the molecule itself. Briefly: AUC.
Data set [2] deals with the molecule itself. Briefly: SEC; analytical Superdex 200, sample diluted in buffer with 2 mM ATP; 50 mM Tris pH 8.0, 200 mM NaCl, 0.2% β-mercaptoethanol; 3 µg/µl protein. On the technique in general: SEC sorts molecules by how far they enter the pores of the column.
Data set [3] deals with the molecule itself. As to the kind of experiment: SEC; analytical Superdex 200, sample diluted in buffer with 2 mM adenosine; 50 mM Tris pH 8.0, 200 mM NaCl, 0.2% β-mercaptoethanol; 3 µg/µl protein.
Data set [4] concerns the molecule itself. Briefly: SEC; analytical Superdex 200, no ligand; 50 mM Tris pH 8.0, 200 mM NaCl, 0.2% β-mercaptoethanol; 3 µg/µl protein; size by calibration proteins.

B1: Archaeoglobus fulgidus Rio1 kinase Y200D mutant (enzyme, UniProt O28471 1-258, looked up)
chain: MKDLKKIESYLDKLRIKEKDGEERKIYAEVLDGRTLKTLYKLSAKGYITAMGGVISTGKEANVFYADGVFDGKPVAMAVKIYRIETSEFDKMDEYLYGDERFDMRRISPKEKVFIWTEKEFRNLERAKEAGVSVPQPYTYMKNVLLMEFIGEDELPAPTLVELGRELKELDVEGIFNDVVENVKRLYQEAELVHADLSEDNIMYIDKVYFIDMGQAVTLRHPMAESYLERDVRNIIRFFSKYGVKADFEEMLKEVKGE
notes: Rio1 kinase of Archaeoglobus fulgidus, full length, with Tyr 200 mutated to Asp; also called afRio1 Y200D; afRio1Y200D
Consider B1, for which, in data set [1], the stoichiometry N – broadly, the number of molecules, sites or subunits per partner or assembly – was 4 and 3.

B2: human Rio1 kinase, residues 106 to 494, unphosphorylated (domain or fragment, UniProt Q9BRS2 106-494, looked up)
chain: STPADKVLRKFENKINLDKLNVTDSVINKVTEKSRQKEADMYRIKDKADRATVEQVLDPRTRMILFKMLTRGIITEINGCISTGKEANVYHASTANGESRAIKIYKTSILVFKDRDKYVSGEFRFRHGYCKGNPRKMVKTWAEKEMRNLIRLNTAEIPCPEPIMLRSHVLVMSFIGKDDMPAPLLKNVQLSESKARELYLQVIQYMRRMYQDARLVHADLSEFNMLYHGGGVYIIDVSQSVEHDHPHALEFLRKDCANVNDFFMRHSVAVMTVRELFEFVTDPSITHENMDAYLSKAMEIASQRTKEERSSQDHVDEEVFKRAYIPRTLNEVKNYERDMDIIMKLKEEDMAMNAQQDNILYQTVTGLKKDLSGVQKVPALLENQVEERT
notes: Rio1 kinase, human, residues 106 to 494; monomer MW 45.1 kDa as printed; also called hRio1; unphosphorylated hRio1; source: size exclusion; purified in the presence of 1 mM adenosine to prevent autophosphorylation
B2: the “stoichiometry N” value in data set [2] was found to be 2; in data set [3], 4.

B3: autophosphorylated human Rio1 kinase, residues 106 to 494 (domain or fragment, UniProt Q9BRS2 106-494, looked up)
chain: B2 chain
modifications: autophosphorylated; site not given
notes: Rio1 kinase, human, residues 106 to 494, autophosphorylated; Same construct as m4, autophosphorylated in vitro; also called phosphorylated hRio1; autophosphorylated hRio1; source: purified hRio1 incubated at 25°C for 1 hr in 50 mM Tris pH 8.0, 200 mM NaCl, 2 mM MgCl2 and 0.2% β-mercaptoethanol
Consider B3, for which the “stoichiometry N” value in data set [4] was 2.
